The text below walks through data of patent publication US20140304847.

One data set deals with ZFN-Rab38-L (artificial). Description: cell_activity. The following applies: with ZFN-Rab38-R; 3 of 52 mice from mRNA-injected zygotes with Rab38-cht vector, no NHEJ inhibition.
Another data set relates to ZFN-Rab38-R (artificial). Put plainly: cell_activity. The following applies: with ZFN-Rab38-L; 3 of 52 mice from mRNA-injected zygotes with Rab38-cht vector, no NHEJ inhibition.

Sequence “ATGCAGACACCTCACAAGGAGCACCTGTACAAGCTGCTGGTGATCGGCGACCTGGGTGTGGGCAAGACCAGCATTATCAAGCGCTATGTGCACCAAAACTTCTCCTCGCACTACCGGGCCACCATTGGTGTGGACTTCGCGCTGAAGGTGCTCCACTGGGACCCAGAGACGGTGGTGCGCTTGCAGCTCTGGGACATTGCTG (double strand) [Rab38 exon 1 ZFN-L half-site]” gave an activity (% targeted mice) with ZFN-Rab38-L (artificial) of 5.
As for “ATGCAGACACCTCACAAGGAGCACCTGTACAAGCTGCTGGTGATCGGCGACCTGGGTGTGGGCAAGACCAGCATTATCAAGCGCTATGTGCACCAAAACTTCTCCTCGCACTACCGGGCCACCATTGGTGTGGACTTCGCGCTGAAGGTGCTCCACTGGGACCCAGAGACGGTGGTGCGCTTGCAGCTCTGGGACATTGCTG (double strand) [Rab38 exon 1 ZFN-R half-site]”, the activity (% targeted mice) in the data set on ZFN-Rab38-R (artificial) was 5.
